Results taken from paper PMC12775124, “CUL4A-DDB1-DCAF10 is an N-recognin for N-terminally acetylated Src kinases” (Nature Communications, 2026).

Assays:
[1] = tested on: Lyn; assay: Lyn level after FLAG-DCAF10 overexpression; format: cell-based, human; details: HeLa, NMT1/2 KD 72 h, FLAG-DCAF10 overexpression 24 h
Description: (§1) 124 Supplementary Fig. 5. NMT1/2 knockdown leads to an increased turnover of SFKs
(§2) 125 and overexpression of DCAF10 reduces SFK levels after NMT1/2 knockdown.
(§3) 126 a) HeLa cells were treated with NMT1/2 siRNA for 72 h or left untreated in combination
(§4) 127 with FLAG-DCAF10 overexpression for 24 h. Representative WBs are shown. b-c) Left:
(§5) 128 WB quantifications with and without NMT1/2 siRNA of Lyn (b) and THOC7 (c)
(§6) Right: Fold change of Lyn (b) and THOC7 (c) after DCAF10
(§7) 130 overexpression. Untreated: purple; with NMT1/2 RNAi: blue. Individual data points are
(§8) 131 indicated (n = 2 or 3 independent biological replicates). MG132 = proteasome inhibitor;
(§9) 132 CHX = cycloheximide translational inhibitor. d) HeLa cells were treated for 72 h with and
(§10) 133 without NMT1/2 siRNA and treated with cycloheximide or MG132 for the indicated
(§11) 134 periods of time. Representative WBs are shown. Filled circles indicate treatment; empty
(§12) 135 circles indicate no treatment. e-h) Fold-change analysis of protein expression levels under
(§13) 136 the indicated conditions. Left: fold change after 8 h cycloheximide treatment of (e) Lyn,
(§14) 137 (f) Fyn, (g) Src and (h) THOC7. Right: fold change after 4 h MG132 treatment of (e) Lyn,
(§15) Untreated: purple; with NMT1/2 siRNA: blue (n = 3 […]
(§16) 412 serum (FBS). Cells were counted and diluted to 100,000 cells/mL. […]
(§17) 433 fraction was measured by MS (see Mass spectrometry measurements and raw file […]

[2] = tested on: THOC7; assay: THOC7 level after FLAG-DCAF10 overexpression; format: cell-based, human; details: HeLa, NMT1/2 KD 72 h, FLAG-DCAF10 overexpression 24 h
Description: as §1, §2, §3, §4, §5, §6, §7, §8, §9, §10, §11, §12, §13, §14, §15, §16, §17

[3] = tested on: Lyn; assay: In vitro ubiquitination of immunoprecipitated Lyn; format: biochemical, human; details: DCAF10 pocket mutant complex
Description: (§18) Having established cellular regulation by DCAF10 under reduced N-myristoylation, we aimed to test whether CUL4A-DDB1-DCAF10 directly ubiquitinates SFKs. […] As we expect NMT1/2 depletion to cause a destabilization of SFKs, their equal or even greater ubiquitination in IPs from untreated cells relative to NMT1/2-depleted cells was unanticipated. We speculate that (i) Nt-acetylated SFKs may degrade rapidly, preventing their accumulation upon NMT1/2 depletion; (ii) an acetylated fraction of SFKs may exist under physiological conditions; (iii) DCAF10 might recognize additional surfaces.
(§19) Reactions contained E1, UBCH5B (E2), ubiquitin, Mg-ATP in ligation buffer and were incubated with bead-bound substrates, followed by washing and immunoblot detection of ubiquitinated species (anti-ubiquitin), with loading controls (anti-Lyn, -Fyn, -Src or -GFP) (n = 3 independent enzymatic assays). Complete reagent lists, complex preparation, substrate IP conditions, wash buffers, and gel/blot parameters are provided in the Supplementary Methods and Tables.
(§20) 357 (v/v) glycerol, 2 mM TCEP, supplemented with Protease Inhibitor Cocktail), and lysed
(§21) 358 by sonication. Lysates were cleared by centrifugation at 28,000 rpm for 45 min at 4 °C […]
(§22) 382 EDTA, and loaded on a gradient gel (4–15%). Ubiquitination of substrates was assessed
(§23) 383 by WB using an anti-ubiquitin antibody. Equal substrate loading was evaluated by anti- […]

[4] = tested on: Src; assay: In vitro ubiquitination of immunoprecipitated Src; format: biochemical, human; details: DCAF10 pocket mutant complex
Description: as §18, §19, §20, §21, §22, §23

[5] = tested on: Fyn; assay: In vitro ubiquitination of immunoprecipitated Fyn; format: biochemical, human; details: DCAF10 pocket mutant complex
Description: as §18, §19, §20, §21, §22, §23

Molecule | Lyn level, fold decrease compared to control cells [1] | THOC7 level (in words) [2] | Lyn ubiquitination (in words) [3] | Src ubiquitination (in words) [4] | Fyn ubiquitination (in words) [5]
FLAG-DCAF10: FLAG-DCAF10 overexpression in HeLa cells (protein, UniProt Q5QP82 1-559, looked up, FLAG tag, FLAG-DCAF10 overexpression in HeLa cells) DDB1- and CUL4-associated …: MFPFGPHSPGGDGSAGAGAEEPTPHEGQAAATGPPSPLHPGADATHPPPPARSPRRPGAPSLSPAPRSGELGLPGAPESSTASAPGEPSPPSPPCRRPGPDCRAKSRGRHGLGAGLGGPGARLFGWLKERSLGRGLFVDPARDNFRTMTSLYGSIHPADSVYLSTRTHGAVFNLEYSPDGSVLTVACEQTEVLLFDPISSKHIKTLSEAHEDCVNNIRFLDNRLFATCSDDTTIALWDLRKLNTKVCTLHGHTSWVKNIEYDTNTRLLVTSGFDGNVIIWDTNRYTEDGCPHKKFFHTRFLMRMRLTPDCSKMLISTSSGYLLILHDLDLTKSLEVGSYPILRARRTTSSSDLTTSSSSSGPRVSGSPCHHSDSNSSEKHMSRASQREGVSPRNSLEVVTPEVLGESDHGNCITSLQLHPKGWATLLRCSSNSDDEECTCVYEFQEGAPVRPVSPRCSLRLTHYIEEANVGRGYIKELCFSPDGRMISSPHGYGIRLLGFDKQCSELVDCLPKEASPLRVIRSLYSHNDVVLTTKFSPTHCQIASGCLSGRVSLYQPKF | ~ 2.1 fold | remained unchanged |  |  | 
DCAF10 triple mutant: DCAF10 triple mutant (F172G, K257A, and I475G) in E3 complex (protein, left off: MBP (as in the WT complex; not said for the mutant), end not stated, state not stated) MFPFGPHSPGGDGSAGAGAEEPTPHEGQAAATGPPSPLHPGADATHPPPPARSPRRPGAPSLSPAPRSGELGLPGAPESSTASAPGEPSPPSPPCRRPGPDCRAKSRGRHGLGAGLGGPGARLFGWLKERSLGRGLFVDPARDNFRTMTSLYGSIHPADSVYLSTRTHGAVGNLEYSPDGSVLTVACEQTEVLLFDPISSKHIKTLSEAHEDCVNNIRFLDNRLFATCSDDTTIALWDLRKLNTKVCTLHGHTSWVANIEYDTNTRLLVTSGFDGNVIIWDTNRYTEDGCPHKKFFHTRFLMRMRLTPDCSKMLISTSSGYLLILHDLDLTKSLEVGSYPILRARRTTSSSDLTTSSSSSGPRVSGSPCHHSDSNSSEKHMSRASQREGVSPRNSLEVVTPEVLGESDHGNCITSLQLHPKGWATLLRCSSNSDDEECTCVYEFQEGAPVRPVSPRCSLRLTHYIEEANVGRGYGKELCFSPDGRMISSPHGYGIRLLGFDKQCSELVDCLPKEASPLRVIRSLYSHNDVVLTTKFSPTHCQIASGCLSGRVSLYQPKF |  |  | abolished ubiquitination of Lyn and Fyn | Src ubiquitination was unaffected by the mutations | abolished ubiquitination of Lyn and Fyn
